Assays:
[1] = target: hepatocyte growth factor (HGF) (UniProt P14210); assay: cell-based or functional assay
[2] = target: Met on MDCK II cells (Madin-Darby canine kidney) (canine (cell line MDCK II)) (UniProt Q75ZY9); assay: cell-based or functional assay

Met-877 His tag protein (Met-877 splice variant with C-terminal Strep II and 8xHis tags) (from UniProt P08581 25-861) (receptor)
amount of inhibitory protein that gave roughly 50% inhibition of scattering, HGF ~5-7 ng/ml, MDCK and HT115 [1]: 0.1 to 1 µg/mL | inhibition of HGF-induced Met tyrosine phosphorylation, A431 or A549 cells, 100 µg/ml Met-877, 10 ng/ml HGF [1]: 70% | inhibition of Met tyrosine phosphorylation, NCI-H441 cells (constitutive phosphorylation), 100 µg/ml Met-877, 10 ng/ml HGF [1]: 40% | scattering score, HT115, inhibitor 1 µg/ml, HGF 7 ng/ml [1]: 1 score 1-5 | scattering score, HT115, inhibitor 5 µg/ml, HGF 7 ng/ml [1]: 1 score 1-5 | scattering score, HT115, inhibitor 10 µg/ml, HGF 7 ng/ml [1]: 1 score 1-5 | scattering score, HT115, inhibitor 10 µg/ml, HGF 50 ng/ml [1]: 3 score 1-5 | scattering score, HT115, inhibitor 100 µg/ml, HGF 50 ng/ml [1]: 1 score 1-5 | scattering score, MDCK, inhibitor 0.1 µg/ml, HGF 5 ng/ml [1]: 5 score 1-5 | scattering score, MDCK, inhibitor 30 µg/ml, HGF 50 ng/ml [1]: 4 score 1-5 | scattering score, MDCK, inhibitor 100 µg/ml, HGF 50 ng/ml [1]: 3 score 1-5

Met-877-Fc (Met-877 splice variant fused to human IgG1 Fc) (Fc fusion)
amount of inhibitory protein that gave roughly 50% inhibition of scattering, HGF ~5-7 ng/ml, MDCK and HT115 [1]: 0.1 to 1 µg/mL | inhibition of HGF-induced Met phosphorylation, A549 and MDA-MB-231 cells, doses higher than 3-10 nM [1]: > 90% | inhibition of HGF-induced phosphorylation of Met Y1230/4/5, MDA-MB-231 cells, 3 nM variant [1]: > 60% | inhibition of HGF-induced proliferation of AsPC-1 cells (BrdU incorporation), 10 ng/ml HGF, 877-Fc at 100 and 300 nM [1]: 90% | inhibition of HGF-induced urokinase upregulation, MDCK II, 10 ng/ml HGF, 3 nM variant [1]: 60 to 80% | inhibition of HGF-induced urokinase upregulation, MDCK II, 10 ng/ml HGF, 10 nM variant [1]: 80% | inhibition of HGF-induced urokinase upregulation, MDCK II, 10 ng/ml HGF, doses higher than 10 nM [1]: > 95% | inhibition of HGF-induced urokinase upregulation, MDCK II, 10 ng/ml HGF, variant at 50 nM or more [1]: > 95% | scattering score, HT115, inhibitor 0.1 µg/ml, HGF 3 ng/ml [1]: 2 score 1-5 | scattering score, HT115, inhibitor 0.1 µg/ml, HGF 5 ng/ml [1]: 3 score 1-5 | scattering score, HT115, inhibitor 5 µg/ml, HGF 5 ng/ml [1]: 1 score 1-5 | scattering score, HT115, inhibitor 5 µg/ml, HGF 7 ng/ml [1]: 1 score 1-5 | scattering score, HT115, inhibitor 10 µg/ml, HGF 1 ng/ml [1]: 1 score 1-5 | scattering score, HT115, inhibitor 10 µg/ml, HGF 3 ng/ml [1]: 1 score 1-5 | scattering score, HT115, inhibitor 10 µg/ml, HGF 5 ng/ml [1]: 1 score 1-5 | scattering score, HT115, inhibitor 10 µg/ml, HGF 7 ng/ml [1]: 1 score 1-5 | scattering score, HT115, inhibitor 10 µg/ml, HGF 50 ng/ml [1]: 2 score 1-5 | scattering score, HT115, inhibitor 100 µg/ml, HGF 50 ng/ml [1]: 1 score 1-5 | scattering score, MDCK, inhibitor 0.1 µg/ml, HGF 7 ng/ml [1]: 5 score 1-5 | scattering score, MDCK, inhibitor 1 µg/ml, HGF 1 ng/ml [1]: 1 score 1-5 | scattering score, MDCK, inhibitor 1 µg/ml, HGF 5 ng/ml [1]: 3 score 1-5 | scattering score, MDCK, inhibitor 1 µg/ml, HGF 7 ng/ml [1]: 3 score 1-5 | scattering score, MDCK, inhibitor 1 µg/ml, HGF 10 ng/ml [1]: 3 score 1-5 | scattering score, MDCK, inhibitor 5 µg/ml, HGF 10 ng/ml [1]: 2 score 1-5 | scattering score, MDCK, inhibitor 10 µg/ml, HGF 1 ng/ml [1]: 1 score 1-5 | scattering score, MDCK, inhibitor 10 µg/ml, HGF 5 ng/ml [1]: 1 score 1-5 | scattering score, MDCK, inhibitor 10 µg/ml, HGF 7 ng/ml [1]: 1 score 1-5 | scattering score, MDCK, inhibitor 10 µg/ml, HGF 10 ng/ml [1]: 1 score 1-5 | scattering score, MDCK, inhibitor 10 µg/ml, HGF 30 ng/ml [1]: 2 score 1-5 | scattering score, MDCK, inhibitor 30 µg/ml, HGF 10 ng/ml [1]: 1 score 1-5 | scattering score, MDCK, inhibitor 30 µg/ml, HGF 30 ng/ml [1]: 1 score 1-5 | scattering score, MDCK, inhibitor 30 µg/ml, HGF 100 ng/ml [1]: 2 score 1-5 | scattering score, MDCK, inhibitor 100 µg/ml, HGF 100 ng/ml [1]: 1 score 1-5

Met-885-Fc (Met-885 splice variant fused to human IgG1 Fc) (Fc fusion)
amount of inhibitory protein that gave roughly 50% inhibition of scattering, HGF ~5-7 ng/ml, MDCK and HT115 [1]: 0.1 to 1 µg/mL | inhibition of HGF-induced Met phosphorylation, A549 and MDA-MB-231 cells, doses higher than 3-10 nM [1]: > 90% | inhibition of HGF-induced phosphorylation of Met Y1230/4/5, MDA-MB-231 cells, 3 nM variant [1]: > 60% | inhibition of HGF-induced urokinase upregulation, MDCK II, 10 ng/ml HGF, 3 nM variant [1]: 60 to 80% | inhibition of HGF-induced urokinase upregulation, MDCK II, 10 ng/ml HGF, doses higher than 10 nM [1]: > 95% | scattering score, HT115, inhibitor 1 µg/ml, HGF 7 ng/ml [1]: 1 score 1-5 | scattering score, HT115, inhibitor 5 µg/ml, HGF 7 ng/ml [1]: 1 score 1-5 | scattering score, HT115, inhibitor 10 µg/ml, HGF 7 ng/ml [1]: 1 score 1-5 | scattering score, HT115, inhibitor 30 µg/ml, HGF 50 ng/ml [1]: 2 score 1-5 | scattering score, MDCK, inhibitor 1 µg/ml, HGF 5 ng/ml [1]: 2 score 1-5 | scattering score, MDCK, inhibitor 5 µg/ml, HGF 5 ng/ml [1]: 2 score 1-5

Met-934-Fc (Met-934 splice variant fused to human IgG1 Fc) (Fc fusion)
amount of inhibitory protein that gave roughly 50% inhibition of scattering, HGF ~5-7 ng/ml, MDCK and HT115 [1]: 0.1 to 1 µg/mL | inhibition of HGF-induced Met phosphorylation, A549 and MDA-MB-231 cells, doses higher than 3-10 nM [1]: > 90% | inhibition of HGF-induced phosphorylation of Met Y1230/4/5, MDA-MB-231 cells, 3 nM variant [1]: > 60% | inhibition of HGF-induced urokinase upregulation, MDCK II, 10 ng/ml HGF, 3 nM variant [1]: 60 to 80% | inhibition of HGF-induced urokinase upregulation, MDCK II, 10 ng/ml HGF, doses higher than 10 nM [1]: > 95% | scattering score, MDCK, inhibitor 10 µg/ml, HGF 50 ng/ml [1]: 3 score 1-5 | scattering score, MDCK, inhibitor 10 µg/ml, HGF 100 ng/ml [1]: 5 score 1-5 | scattering score, MDCK, inhibitor 30 µg/ml, HGF 50 ng/ml [1]: 2 score 1-5 | scattering score, MDCK, inhibitor 100 µg/ml, HGF 100 ng/ml [1]: 1 score 1-5

hepatocyte growth factor (HGF) (from UniProt P14210 32-728) (ligand)
scattering score, MDCK, no inhibitor, HGF 5-100 ng/ml [2]: 5 score 1-5

— patent publication US20090036374A1
